# Results reported in article PMC3268006 (Journal of Molecular Biology, 2011).
# Target: matriptase (MT-SP1), human protease domain (human, UniProt Q9Y5Y6)
# Assay: steady-state enzyme inhibition kinetics
# Chain of matriptase (MT-SP1), human protease domain (Q9Y5Y6 615-855): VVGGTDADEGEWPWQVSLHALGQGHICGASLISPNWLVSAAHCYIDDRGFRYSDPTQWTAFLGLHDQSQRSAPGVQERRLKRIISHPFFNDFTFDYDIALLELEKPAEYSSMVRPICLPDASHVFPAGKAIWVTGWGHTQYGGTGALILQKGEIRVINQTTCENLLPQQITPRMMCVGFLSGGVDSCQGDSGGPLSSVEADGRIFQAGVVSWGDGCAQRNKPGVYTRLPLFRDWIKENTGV
row,Binder,Ki
1,"Fab S4 H R100bA (Fab, V domains shown) VH: EVQLVQSGAEVKKPGSSVKVSCKASGGTFSSYAISWVRQAGQGLEWMGGIIPIFGTANYAQKFQGRVTITADESTSTAYMELSSLRSEDTAVYYCARTFHIRRYASGYYDKMDHWGQGTLVTVSS VL: VLTQPPSVSGAPGQRVTISCSGSSSNIGSNYVSWYQQKPGTAPKLLIYDNNQRPSGVPDRFSGSKSGTSAVLAITGLQSEDEADYYCQSRDISQYVFGGGTKLTVL",93 nM
2,"Fab S4 H R100bK (Fab, V domains shown) VH: EVQLVQSGAEVKKPGSSVKVSCKASGGTFSSYAISWVRQAGQGLEWMGGIIPIFGTANYAQKFQGRVTITADESTSTAYMELSSLRSEDTAVYYCARTFHIRRYKSGYYDKMDHWGQGTLVTVSS VL: VLTQPPSVSGAPGQRVTISCSGSSSNIGSNYVSWYQQKPGTAPKLLIYDNNQRPSGVPDRFSGSKSGTSAVLAITGLQSEDEADYYCQSRDISQYVFGGGTKLTVL",110 nM
3,"Fab A11 H R100bK (Fab, V domains shown) VH: EVQLVQSGGGLVKPGGSLRLSCAASGFTFSSYAMSWVRQAPGKGLEWVSAISGSGGSTYYADSVKGRFTISRDNSKNTLYLQMSSLRAEDTAVYYCVKDLGIAARKFVSGAFDIWGQGTMVTVSS VL: EIVLTQSPGTLSLSPGERATLSCRASQSVSSSYLAWYQQKPGQAPRLLIYGASTRATGIPARFSGSGSGTDFTLTINSLEPEDFAVYYCQQRSNWPPGYTFGQGTKVEIT",180 nM
4,"Fab A11 H R100bA (Fab, V domains shown) VH: EVQLVQSGGGLVKPGGSLRLSCAASGFTFSSYAMSWVRQAPGKGLEWVSAISGSGGSTYYADSVKGRFTISRDNSKNTLYLQMSSLRAEDTAVYYCVKDLGIAARAFVSGAFDIWGQGTMVTVSS VL: EIVLTQSPGTLSLSPGERATLSCRASQSVSSSYLAWYQQKPGQAPRLLIYGASTRATGIPARFSGSGSGTDFTLTINSLEPEDFAVYYCQQRSNWPPGYTFGQGTKVEIT",180 nM

# These reach a lower Ki. Values come first.
row,Ki,Binder
1,1 nM,"Fab S4 (Fab, V domains shown) VH: EVQLVQSGAEVKKPGSSVKVSCKASGGTFSSYAISWVRQAGQGLEWMGGIIPIFGTANYAQKFQGRVTITADESTSTAYMELSSLRSEDTAVYYCARTFHIRRYRSGYYDKMDHWGQGTLVTVSS VL: VLTQPPSVSGAPGQRVTISCSGSSSNIGSNYVSWYQQKPGTAPKLLIYDNNQRPSGVPDRFSGSKSGTSAVLAITGLQSEDEADYYCQSRDISQYVFGGGTKLTVL"
2,1.5 nM,"Fab A11 H R100aA (Fab, V domains shown) VH: EVQLVQSGGGLVKPGGSLRLSCAASGFTFSSYAMSWVRQAPGKGLEWVSAISGSGGSTYYADSVKGRFTISRDNSKNTLYLQMSSLRAEDTAVYYCVKDLGIAAARFVSGAFDIWGQGTMVTVSS VL: EIVLTQSPGTLSLSPGERATLSCRASQSVSSSYLAWYQQKPGQAPRLLIYGASTRATGIPARFSGSGSGTDFTLTINSLEPEDFAVYYCQQRSNWPPGYTFGQGTKVEIT"
